Residue numbers refer to the chain shown, from its start. Names and notes keep the numbering of the source.
T1: His-SUMO-Met4-Strep-tagII-HA (S. cerevisiae, UniProt P32389 1-672)
T1 construct: Met4, transcription factor of the MET regulon, Saccharomyces cerevisiae; MET4 ORF cloned into the pET His6 Sumo vector; fractions with pure, full-length Met4 were pooled; No cleavage of His-SUMO is described; also called recombinant Met4; bacterially purified Met4; source: E. coli BL21, purified (Ni-NTA, Strep-Tactin Sepharose); not shown: HA, C-terminal, kept
T1 sequence (looked up): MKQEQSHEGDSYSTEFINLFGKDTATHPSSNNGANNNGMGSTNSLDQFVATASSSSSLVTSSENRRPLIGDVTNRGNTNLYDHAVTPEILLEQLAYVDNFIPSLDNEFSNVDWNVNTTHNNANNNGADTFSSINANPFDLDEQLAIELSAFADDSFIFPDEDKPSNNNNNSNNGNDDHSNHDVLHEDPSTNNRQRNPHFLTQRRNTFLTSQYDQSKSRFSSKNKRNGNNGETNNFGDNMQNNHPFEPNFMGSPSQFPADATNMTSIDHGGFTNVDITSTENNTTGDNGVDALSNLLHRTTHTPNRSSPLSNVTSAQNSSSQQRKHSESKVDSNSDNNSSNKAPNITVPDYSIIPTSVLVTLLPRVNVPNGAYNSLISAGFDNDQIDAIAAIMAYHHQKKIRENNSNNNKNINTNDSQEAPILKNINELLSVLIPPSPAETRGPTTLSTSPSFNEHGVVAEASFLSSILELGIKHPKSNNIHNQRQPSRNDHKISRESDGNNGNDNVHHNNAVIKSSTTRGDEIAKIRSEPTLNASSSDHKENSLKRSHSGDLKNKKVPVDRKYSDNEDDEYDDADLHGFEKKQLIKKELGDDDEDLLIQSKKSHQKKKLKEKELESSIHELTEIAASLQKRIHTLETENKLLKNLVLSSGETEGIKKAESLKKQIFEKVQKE

B1: Met30-Flag (natural protein, S. cerevisiae, UniProt P39014 1-640, looked up)
chain: MRRERQRMMSFEDKDKDDLDNSNSNNSSEMTDTAMMPPLKRLLITGSSDDLAQGSSGKKKMTMATRSPSSSPDLATNDSGTRVQPLPEYNFTKFCYRHNPDIQFSPTHTACYKQDLKRTQEINANIAKLPLQEQSDIHHIISKYSNSNDKIRKLILDGILSTSCFPQLSYISSLVTHMIKIDFISILPQELSLKILSYLDCQSLCNATRVCRKWQKLADDDRVWYHMCEQHIDRKCPNCGWGLPLLHMKRARIQQNSTGSSSNADIQTQTTRPWKVIYRERFKVESNWRKGHCRIQEFKGHMDGVLTLQFNYRLLFTGSYDSTIGIWDLFTGKLIRRLSGHSDGVKTLYFDDRKLITGSLDKTIRVWNYITGECISTYRGHSDSVLSVDSYQKVIVSGSADKTVKVWHVESRTCYTLRGHTEWVNCVKLHPKSFSCFSCSDDTTIRMWDIRTNSCLKVFRGHVGQVQKIIPLTIKDVENLATDNTSDGSSPQDDPTMTDGADESDTPSNEQETVLDENIPYPTHLLSCGLDNTIKLWDVKTGKCIRTQFGHVEGVWDIAADNFRIISGSHDGSIKVWDLQSGKCMHTFNGRRLQRETQHTQTQSLGDKVAPIACVCIGDSECFSGDEFGCVKMYKFDLND
notes: Met30, F-box protein of the SCF^Met30 E3 ubiquitin ligase, Saccharomyces cerevisiae (CEN.PK background); endogenous locus tagged at the C-terminus; 23 cysteines; Isolated from yeast as a Met30-Flag complex, so other SCF components may be on the beads; Cysteines are reduced or oxidised depending on the IP condition (+DTT, -DTT, +diamide); also called SCF^Met30-Flag; Flag-tagged Met30; source: S. …
B2: Met30 C614/616/622/630S (Flag-tagged) (natural protein, S. cerevisiae, UniProt P39014 1-640, looked up)
chain: B1 chain with C614S, C616S, C622S, C630S
notes: Met30, F-box protein, Saccharomyces cerevisiae (CEN.PK background), with four cysteine to serine mutations in the WD-40 repeat region; whole gene locus with tag transformed into yeast; source: S. cerevisiae CEN.PK mutant strain grown in rich media, immunopurified on anti-FLAG M2 magnetic beads; not shown: Flag, C-terminal, kept
B3: Met30 C414S (Flag-tagged) (natural protein, S. cerevisiae, UniProt P39014 1-640, looked up)
chain: B1 chain with C414S
notes: Met30, F-box protein, Saccharomyces cerevisiae (CEN.PK background), with the point mutation C414S; whole gene locus with tag transformed into yeast; source: S. cerevisiae CEN.PK mutant strain grown in rich media, immunopurified on anti-FLAG M2 magnetic beads; not shown: Flag, C-terminal, kept

What follows are binders tested against T1, His-SUMO-Met4-Strep-tagII-HA (assay: pull-down; Met30-Flag complex isolated on anti-FLAG M2 protein G dynabeads from lysate of rich or -sulfur cells with 1 mM DTT, 1 mM diamide or nothing added; beads washed, then incubated with 1 ug purified recombinant Met4 in 1 mL IP buffer (50 mM Tris pH 7.5, 150 mM NaCl, 1% NP-40) with or without 1 mM DTT, 2 h, 4°C; Western blots for Met4 and Met30; mutants from cells grown in rich media). Conditions: both partners purified.

Binder | binding result
B1 | binds
B2 | binds
B3 | binds

Source: publication doi:10.1101/2021.01.06.425657, “The SCF^Met30 ubiquitin ligase senses cellular redox state to regulate the transcription of sulfur metabolism gene” (bioRxiv, 2021)
